Source: patent US20150203577A1 (Chugai, published 2015)
Where two headings read alike, the source gives them in different places.

T1: mouse FcγRIII extracellular domain, C-terminally His-tagged (mouse, UniProt P08508 31-215)
T1 construct: the whole entry is named; also called mFcγRIII; mFcgRIII
T1 chain: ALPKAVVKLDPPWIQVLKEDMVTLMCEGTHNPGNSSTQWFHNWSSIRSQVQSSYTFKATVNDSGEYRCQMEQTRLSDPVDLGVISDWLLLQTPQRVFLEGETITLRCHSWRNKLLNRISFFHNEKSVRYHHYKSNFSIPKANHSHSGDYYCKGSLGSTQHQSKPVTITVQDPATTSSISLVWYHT

T2: mouse FcγRII extracellular domain, C-terminally His-tagged (mouse, UniProt P08101 30-210)
T2 construct: the whole entry is named; also called mFcγRII; mFcgRII
T2 sequence: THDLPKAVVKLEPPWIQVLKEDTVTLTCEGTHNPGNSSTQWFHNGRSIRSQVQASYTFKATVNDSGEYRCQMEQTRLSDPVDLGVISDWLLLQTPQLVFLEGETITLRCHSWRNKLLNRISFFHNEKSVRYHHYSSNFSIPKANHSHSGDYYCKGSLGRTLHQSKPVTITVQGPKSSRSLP

T3: mouse FcγRIII extracellular domain with C-terminal His tag (mouse, UniProt P08508 31-215)
T3 construct: Made on the basis of NCBI NP-034318.2; also called mFcγRIII; mFcgRIII
T3 chain: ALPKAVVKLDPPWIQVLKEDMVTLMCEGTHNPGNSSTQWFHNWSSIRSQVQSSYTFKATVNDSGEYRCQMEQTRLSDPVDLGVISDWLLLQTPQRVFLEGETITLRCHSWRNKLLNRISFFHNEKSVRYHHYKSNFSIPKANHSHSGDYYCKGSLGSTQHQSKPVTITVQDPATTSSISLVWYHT

T4: mouse FcγRII extracellular domain with C-terminal His tag (mouse, UniProt P08101 30-210)
T4 construct: Made on the basis of NCBI NP-034317.1; also called mFcγRII; mFcgRII
T4 sequence: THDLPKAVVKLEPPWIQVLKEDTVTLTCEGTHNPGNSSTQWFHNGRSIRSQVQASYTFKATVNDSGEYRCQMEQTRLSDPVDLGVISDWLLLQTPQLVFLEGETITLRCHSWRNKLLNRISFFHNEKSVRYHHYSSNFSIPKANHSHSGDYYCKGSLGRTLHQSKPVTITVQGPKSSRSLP


Assays:
[1] = target: T1, mouse FcγRIII extracellular domain, …; assay: SPR Biacore T200, KD ratio
Excerpt: (§1) The antibody H chain variable region used was the variable region H237 (SEQ ID NO: 1) of the H chain VH3-IgG1 of the anti-IL-6 receptor antibody Fv4-IgG1 described in WO2009/125825. The antibody L chain commonly used was the L chain MRAL-k0 (SEQ ID NO: 2) of the anti-IL-6 receptor antibody tocilizumab. H237-MB476/MRAL-k0 and H237-MB515/MRAL-k0 were used as templates to introduce new alterations. These variants were expressed and purified by the method of Reference Example 1 and evaluated for their binding to mFcγRII and mFcγRIII by the method of Reference Example 2 using Biacore T200.
(§2) Each altered antibody was analyzed for its interaction with each Fcγ receptor prepared above using Biacore T100 (GE Healthcare Japan Corp.), Biacore T200 (GE Healthcare Japan Corp.), Biacore A100, or Biacore 4000. The running buffer used was HBS-EP+ (GE Healthcare Japan Corp.). The assay temperature was set to 25° C. The sensor chips used were chips prepared by immobilizing Protein L (ACTIGEN or BioVision) onto Series S Sensor Chip CM5 (GE Healthcare Japan Corp.) or Series S Sensor Chip CM4 (GE Healthcare Japan Corp.) by the amine coupling method.
(§3) In order to calculate the KD value of each altered antibody for FcγR, kinetic analysis was conducted according to the following method: first, the antibody of interest was captured onto any of these chips and allowed to interact with mFcγR diluted with a running buffer. For the obtained sensorgram, the assay results were globally fit into the 1:1 Langmuir binding model using Biacore Evaluation Software to calculate an association rate constant ka (L/mol/s) and a dissociation rate constant kd (1/s). From these values, the dissociation constant KD (mol/L) was calculated.

[2] = target: T2, mouse FcγRII extracellular domain, …; assay: SPR Biacore T200, KD ratio
Excerpt: as §1, §2, §3

[3] = target: T1, mouse FcγRIII extracellular domain, …; assay: SPR Biacore T200, KD ratio, template MB476
Excerpt: as §1, §2, §3

[4] = target: T2, mouse FcγRII extracellular domain, …; assay: SPR Biacore T200, KD ratio, template MB476
Excerpt: as §1, §2, §3

[5] = target: T3, mouse FcγRIII extracellular domain with …; assay: SPR Biacore T200
[6] = target: T4, mouse FcγRII extracellular domain with …; assay: SPR Biacore T200
[7] = target: T3, mouse FcγRIII extracellular domain with …; assay: SPR Biacore T200
[8] = target: T4, mouse FcγRII extracellular domain with …; assay: SPR Biacore T200; remark: listed apart in the source
[9] = target: T4, mouse FcγRII extracellular domain with …; assay: SPR Biacore T200; KD mFcγRIII / KD mFcγRII
[10] = target: T3, mouse FcγRIII extracellular domain with …; assay: SPR Biacore T200
Description: as §2, §3

[11] = target: T4, mouse FcγRII extracellular domain with …; assay: SPR Biacore T200; remark: listed apart in the source
Description: as §2, §3

| relative mFcγRIII-binding activity (mIgG1 = 1) [1] | relative mFcγRII-binding activity (mIgG1 = 1) [2] | relative mFcγRIII-binding activity (template = 1) [3] | relative mFcγRII-binding activity (template = 1) [4] | Binder | other results |
| --- | --- | --- | --- | --- | --- |
| 2.6 fold | 261 fold | 1 fold | 1 fold | H237-MB476/MRAL-k0 (antibody, mouse IgG1, kappa, Template; copies: 2 + 2) heavy: QVQLQESGPGLVKPSETLSLTCAVSGHSISHDHAWSWVRQPPGEGLEWIGFISYSGITNYNPSLQGRVTISRDNSKNTLYLQMNSLRAEDTAVYYCARSLARTTAMDYWGEGTLVTVSSAKTTPPSVYPLAPGSAAQTNSMVTLGCLVKGYFPEPVTVTWNSGSLSSGVHTFPAVLQSDLYTLSSSVTVPSSTWPSETVTCNVAHPASSTKVDKKIVPRDCGCKPCICQPNEVEEVFIFPPKPKDVLTITLTPKVTCVVVDISKDDPEVQFSWFVDDVEVHTAQTQPREEQFNSTFRSVSELPIMHQDWLNGKEFKCRVNSAAFPAPIEKTISKTKGRPKAPQVYTIPPPKEQMAKDKVSLTCMITDFFPEDITVEWQWNGQPAENYKNTQPIMDTDGSYFVYSKLNVQKSNWEAGNTFTCSVLHEGLHNHHTEKSLSHSPGK light: not shown |  |
|  |  |  |  | H237-MB432/MRAL-k0 (antibody, mouse IgG1, kappa, mIgG1 with T230Q/V231P/P232N/S238E/S239D (EU); template T9; copies: 2 + 2) heavy: QVQLQESGPGLVKPSETLSLTCAVSGHSISHDHAWSWVRQPPGEGLEWIGFISYSGITNYNPSLQGRVTISRDNSKNTLYLQMNSLRAEDTAVYYCARSLARTTAMDYWGEGTLVTVSSAKTTPPSVYPLAPGSAAQTNSMVTLGCLVKGYFPEPVTVTWNSGSLSSGVHTFPAVLQSDLYTLSSSVTVPSSTWPSETVTCNVAHPASSTKVDKKIVPRDCGCKPCICQPNEVEDVFIFPPKPKDVLTITLTPKVTCVVVDISKDDPEVQFSWFVDDVEVHTAQTQPREEQFNSTFRSVSELPIMHQDWLNGKEFKCRVNSAAFPAPIEKTISKTKGRPKAPQVYTIPPPKEQMAKDKVSLTCMITDFFPEDITVEWQWNGQPAENYKNTQPIMDTDGSYFVYSKLNVQKSNWEAGNTFTCSVLHEGLHNHHTEKSLSHSPGK light: not shown | Kd [5]: 26.4 nM; relative mFcγRIII-binding activity (mIgG1 = 1) [5]: 10.7; Kd [6]: 0.613 nM; relative mFcγRII-binding activity (mIgG1 = 1) [6]: 343; relative mFcγRIII-binding activity (mIgG1 = 1) [7]: 10.7; relative mFcγRII-binding activity (mIgG1 = 1) [8]: 343; I/A (mFcγRII selectivity) [9]: 43.1; relative I/A (mFcγRII selectivity) (mIgG1 = 1) [9]: 32.2; Kd [10]: 26.4 nM; Kd [11]: 0.613 nM |
| 8.5 fold | 232 fold | 3.23 fold | 0.89 fold | H237-MB526/MRAL-k0 (antibody, mouse IgG1, kappa, copies: 2 + 2) heavy: QVQLQESGPGLVKPSETLSLTCAVSGHSISHDHAWSWVRQPPGEGLEWIGFISYSGITNYNPSLQGRVTISRDNSKNTLYLQMNSLRAEDTAVYYCARSLARTTAMDYWGEGTLVTVSSAKTTPPSVYPLAPGSAAQTNSMVTLGCLVKGYFPEPVTVTWNSGSLSSGVHTFPAVLQSDLYTLSSSVTVPSSTWPSETVTCNVAHPASSTKVDKKIVPRDCGCKPCICQPNEVEEVFIFPPKPKDVLTITLTPKVTCVVVDISKDDPEVQFSWFVDDVEVHTAQTQPREEQFNLTFRSVSELPIMHQDWLNGKEFKCRVNSAAFPAPIEKTISKTKGRPKAPQVYTIPPPKEQMAKDKVSLTCMITDFFPEDITVEWQWNGQPAENYKNTQPIMDTDGSYFVYSKLNVQKSNWEAGNTFTCSVLHEGLHNHHTEKSLSHSPGK light: not shown |  |
| 8 fold | 623 fold | 3.04 fold | 2.38 fold | H237-MB530/MRAL-k0 (antibody, mouse IgG1, kappa, copies: 2 + 2) heavy: QVQLQESGPGLVKPSETLSLTCAVSGHSISHDHAWSWVRQPPGEGLEWIGFISYSGITNYNPSLQGRVTISRDNSKNTLYLQMNSLRAEDTAVYYCARSLARTTAMDYWGEGTLVTVSSAKTTPPSVYPLAPGSAAQTNSMVTLGCLVKGYFPEPVTVTWNSGSLSSGVHTFPAVLQSDLYTLSSSVTVPSSTWPSETVTCNVAHPASSTKVDKKIVPRDCGCKPCICQPNEVEEVFIFPPKPKDVLTITLTPKVTCVVVDISKDDPEVQFSWFVDDVEVHTAQTQPREEQFNSTFRSVSELPIMHQDWLNGKEFKCRVDSDAFPAPIEKTISKTKGRPKAPQVYTIPPPKEQMAKDKVSLTCMITDFFPEDITVEWQWNGQPAENYKNTQPIMDTDGSYFVYSKLNVQKSNWEAGNTFTCSVLHEGLHNHHTEKSLSHSPGK light: not shown | relative mFcγRII-binding activity (H237-mIgG1/MRAL-k0 = 1) [2]: ≥ 350 fold; relative mFcγRII-binding activity (template H237-MB476/MRAL-k0 = 1) [2]: ≥ 1.4 fold |
| 14.6 fold | 375 fold | 5.52 fold | 1.44 fold | H237-MB528/MRAL-k0 (antibody, mouse IgG1, kappa, copies: 2 + 2) heavy: QVQLQESGPGLVKPSETLSLTCAVSGHSISHDHAWSWVRQPPGEGLEWIGFISYSGITNYNPSLQGRVTISRDNSKNTLYLQMNSLRAEDTAVYYCARSLARTTAMDYWGEGTLVTVSSAKTTPPSVYPLAPGSAAQTNSMVTLGCLVKGYFPEPVTVTWNSGSLSSGVHTFPAVLQSDLYTLSSSVTVPSSTWPSETVTCNVAHPASSTKVDKKIVPRDCGCKPCICQPNEVEEVFIFPPKPKDVLTITLTPKVTCVVVDISKDDPEVQFSWFVDDVEVHTAQTQPREEQFNLTFRSVSELPIMHQDWLNGKEFKCRVNSDAFPAPIEKTISKTKGRPKAPQVYTIPPPKEQMAKDKVSLTCMITDFFPEDITVEWQWNGQPAENYKNTQPIMDTDGSYFVYSKLNVQKSNWEAGNTFTCSVLHEGLHNHHTEKSLSHSPGK light: not shown |  |
| 5.9 fold | 282 fold | 2.24 fold | 1.08 fold | H237-MB529/MRAL-k0 (antibody, mouse IgG1, kappa, copies: 2 + 2) heavy: QVQLQESGPGLVKPSETLSLTCAVSGHSISHDHAWSWVRQPPGEGLEWIGFISYSGITNYNPSLQGRVTISRDNSKNTLYLQMNSLRAEDTAVYYCARSLARTTAMDYWGEGTLVTVSSAKTTPPSVYPLAPGSAAQTNSMVTLGCLVKGYFPEPVTVTWNSGSLSSGVHTFPAVLQSDLYTLSSSVTVPSSTWPSETVTCNVAHPASSTKVDKKIVPRDCGCKPCICQPNEVEEVFIFPPKPKDVLTITLTPKVTCVVVDISKDDPEVQFSWFVDDVEVHTAQTQPREEQFNLTFRSVSELPIMHQDWLNGKEFKCRVNSAAFPAPIERTISKTKGRPKAPQVYTIPPPKEQMAKDKVSLTCMITDFFPEDITVEWQWNGQPAENYKNTQPIMDTDGSYFVYSKLNVQKSNWEAGNTFTCSVLHEGLHNHHTEKSLSHSPGK light: not shown |  |
| 5.5 fold | 273 fold | 2.09 fold | 1.05 fold | H237-MB527/MRAL-k0 (antibody, mouse IgG1, kappa, also called MG527; copies: 2 + 2) heavy: QVQLQESGPGLVKPSETLSLTCAVSGHSISHDHAWSWVRQPPGEGLEWIGFISYSGITNYNPSLQGRVTISRDNSKNTLYLQMNSLRAEDTAVYYCARSLARTTAMDYWGEGTLVTVSSAKTTPPSVYPLAPGSAAQTNSMVTLGCLVKGYFPEPVTVTWNSGSLSSGVHTFPAVLQSDLYTLSSSVTVPSSTWPSETVTCNVAHPASSTKVDKKIVPRDCGCKPCICQPNEVEEVFIFPPKPKDVLTITLTPKVTCVVVDISKDDPEVQFSWFVDDVEVHTAQTQPREEQFNLTFRSVSELPIMHQDWLNGKEFKCRVDSAAFPAPIEKTISKTKGRPKAPQVYTIPPPKEQMAKDKVSLTCMITDFFPEDITVEWQWNGQPAENYKNTQPIMDTDGSYFVYSKLNVQKSNWEAGNTFTCSVLHEGLHNHHTEKSLSHSPGK light: not shown |  |
